The source of these data is patent US20260056186A1 (JIANGSU HENGRUI PHARMACEUTICALS, published 2026).

This test has as its target BAFF (PeproTech, Cat: 310-13) (UniProt Q9Y275 134-285). The test is described as follows: ELISA, plate coated with BAFF 1 ug/mL, HRP anti-human Fc, OD450. As to the method: BAFF (PeproTech, Cat: 310-13) was diluted to 1 μg/mL with PBS, and a 96-well plate was coated with the dilution overnight at 4° C. The plate was washed with PBST and blocked with Blocking Buffer (PBST containing 1% BSA) at 37° C. for 1 h. The plate was tapped. The test antibodies were diluted with Blocking Buffer. Incubation was performed at 37° C. for 1.5 h. The plate was washed with PBST. An HRP-mouse anti-human Fc antibody (GenScript, Cat: A01854-200) was diluted with Blocking Buffer. Incubation was performed at 37° C. for 40 min. The plate was washed with PBST. 100 μL of TMB substrate solution (Biopanda, Cat: TMB-S-003) was added, and color development was performed at 37° C. for 3 min. 100 μL of ELISA stop solution (Solarbio, Cat: C1058) was added. OD450 was measured.

Chain of BAFF (PeproTech, Cat: 310-13) (Q9Y275 134-285 limits assumed): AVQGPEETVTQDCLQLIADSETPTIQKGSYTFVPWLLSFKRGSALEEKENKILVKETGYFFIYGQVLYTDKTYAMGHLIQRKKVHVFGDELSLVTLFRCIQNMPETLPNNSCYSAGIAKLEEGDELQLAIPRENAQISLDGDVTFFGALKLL

B1: Telitacicept (RCT-18) (Fc fusion)
chain: SRVDQEERFPQGLWTGVAMRSCPEEQYWDPLLGTCMSCKTICNHQSQRTCAAFCRSLSCRKEQGKFYDHLLRDCISCASICGQHPKQCAYFCENKLRSPVNLPPELDKTHTCPPCPAPEAEGAPSVFLFPPKPKDTLMISRTPEVTCVVVDVSHEDPEVKFNWYVDGVEVHNAKTKPREEQYNSTYRVVSVLTVLHQDWLNGKEYKCKVSNKALPSSIEKTISKAKGQPREPQVYTLPPSRDELTKNQVSLTCLVKGFYPSDIAVEWESNGQPENNYKTTPPVLDSDGSFFLYSKLTVDKSRWQQGNVFSCSVMHEALHNHYTQKSLSLSPGK
notes: Positive control TACI-Fc; also called RC18
For B1, the “EC50 (read off the curve)” value is ~0.4 nM.

The EC50 (read off the curve) is the concentration needed to bring the measured effect to its halfway point. Higher therefore signals weaker potency.
